In US20200317768A1 (published 2020):

How the values were obtained:
Experiment in all cases: SPR (Biacore), antibody captured, FcgR analyte, 25 C
[1] = biological target: T1, human FcγRIIb extracellular domain, C-terminal His-tag (human, UniProt P31994 43-217)
T1 construct: also called FcgRIIb (human); not shown: His-tag added to C-terminus
T1 sequence: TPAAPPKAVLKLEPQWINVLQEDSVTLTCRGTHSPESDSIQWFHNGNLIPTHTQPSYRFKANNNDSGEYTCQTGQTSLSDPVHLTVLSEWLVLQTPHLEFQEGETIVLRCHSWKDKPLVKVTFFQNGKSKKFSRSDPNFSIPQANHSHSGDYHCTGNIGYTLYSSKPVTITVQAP
Experimental: (§1) The kinetic analysis of interactions between these antibodies and FcγR was carried out using BIACORE® T200 or BIACORE® 4000 (GE Healthcare). HBS-EP+ (GE Healthcare) was used as the running buffer, and the measurement temperature was set to 25° C. A chip produced by immobilizing Protein A. Protein A/G or mouse anti-human IgG kappa light chain (BD Biosciences) onto a Series S Sensor Chip CM4 or CM5 (GE Healthcare) by the amine-coupling method was used. […] After the measurement, the antibody captured on the chip was washed off by allowing reaction with 10 mM glycine-HCl, pH1.5 and 25 mM NaOH so that the chip was regenerated and used repeatedly. The sensorgrams obtained as measurement results were analyzed by the 1:1 Langmuir binding model using the BIACORE® Evaluation Software to calculate the binding rate constant ka (L/mol/s) and dissociation rate constant kd (l/s), and the dissociation constant KD (mol/L) was calculated from these values. […] Regarding such interactions, KD values were calculated using the following 1:1 binding model described in BIACORE® T100 Software Handbook BR1006-48 Edition AE.
(§2) The behavior of interacting molecules according to the 1:1 binding model on BIACORE® can be described by Equation 1: Req=C·R max/(KD+C)+RI, wherein, Req is a plot of steady-state binding levels to analyte concentration. C is concentration, RI is bulk refractive index contribution in the sample, and Rmax is analyte binding capacity of the surface. When this equation is rearranged, KD can be expressed as Equation 2: KD=C·Rmax/(Req−RI)−C. KD can be calculated by substituting the values of Rmax, RI, and C into Equation 1 or Equation 2. From the current measurement conditions, RI=0, C=2 μmol/L can be used.

[2] = biological target: T2, cynomolgus monkey FcγRIIa2 extracellular domain, C-terminal His-tag (cynomolgus monkey)
T2 construct: also called cyno FcγRIIa2; cynoFcgRIIa2; not shown: His-tag added to C-terminus
T2 chain: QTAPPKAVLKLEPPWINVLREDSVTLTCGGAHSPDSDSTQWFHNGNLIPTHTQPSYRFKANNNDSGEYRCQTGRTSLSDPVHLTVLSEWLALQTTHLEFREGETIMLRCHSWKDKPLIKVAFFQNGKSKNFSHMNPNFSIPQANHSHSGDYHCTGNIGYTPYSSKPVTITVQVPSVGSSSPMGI
Experimental: as §1, §2

[3] = biological target: T3, cynomolgus monkey FcγRIIa1 extracellular domain, C-terminal His-tag (cynomolgus monkey)
T3 construct: also called cyno FcγRIIa1; cynoFcgRIIa1; not shown: His-tag added to C-terminus
T3 chain: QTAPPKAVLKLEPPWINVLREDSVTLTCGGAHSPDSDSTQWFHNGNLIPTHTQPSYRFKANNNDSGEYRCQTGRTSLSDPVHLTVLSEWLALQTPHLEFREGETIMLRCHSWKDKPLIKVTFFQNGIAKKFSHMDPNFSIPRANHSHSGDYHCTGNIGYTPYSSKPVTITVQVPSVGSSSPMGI
Experimental: as §1, §2

[4] = biological target: T4, human FcγRIIaR extracellular domain, C-terminal His-tag (human, UniProt P12318 34-217)
T4 construct: also called human FcγRIIa (type R); FcgRIIaR; not shown: His-tag added to C-terminus
T4 chain: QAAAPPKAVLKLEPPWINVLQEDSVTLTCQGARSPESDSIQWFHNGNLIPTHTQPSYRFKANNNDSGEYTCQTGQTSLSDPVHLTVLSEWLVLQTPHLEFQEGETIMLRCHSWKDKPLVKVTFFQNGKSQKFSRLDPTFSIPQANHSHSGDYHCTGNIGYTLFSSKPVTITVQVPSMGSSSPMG
Experimental: as §1, §2

[5] = biological target: T5, cynomolgus monkey FcγRIIa3 extracellular domain, C-terminal His-tag (cynomolgus monkey)
T5 construct: also called cyno FcγRIIa3; cynoFcgRIIa3; not shown: His-tag added to C-terminus
T5 chain: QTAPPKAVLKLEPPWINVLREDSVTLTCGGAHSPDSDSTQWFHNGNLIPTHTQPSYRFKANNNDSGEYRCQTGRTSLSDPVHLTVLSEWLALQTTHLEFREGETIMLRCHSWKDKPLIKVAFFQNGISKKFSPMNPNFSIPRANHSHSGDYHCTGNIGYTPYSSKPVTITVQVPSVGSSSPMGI
Experimental: as §1, §2

[6] = biological target: T6, human FcγRIIIaV extracellular domain, C-terminal His-tag (human, UniProt P08637 17-208)
T6 construct: also called FcgRIIIaV; not shown: His-tag added to C-terminus
Experimental: as §1, §2

[7] = biological target: T7, cynomolgus monkey FcγRIIIaS extracellular domain, C-terminal His-tag (cynomolgus monkey, UniProt A3RFZ7 21-206 (rhesus entry))
T7 construct: also called cyno FcγRIIIaS; cynoFcγRIIIaS; not shown: His-tag added to C-terminus
Experimental: as §1, §2

[8] = biological target: T8, cynomolgus monkey FcγRIIb extracellular domain, C-terminal His-tag (cynomolgus monkey)
T8 construct: also called cyno FcγRIIb; cynoFcγRIIb; not shown: His-tag added to C-terminus
T8 chain: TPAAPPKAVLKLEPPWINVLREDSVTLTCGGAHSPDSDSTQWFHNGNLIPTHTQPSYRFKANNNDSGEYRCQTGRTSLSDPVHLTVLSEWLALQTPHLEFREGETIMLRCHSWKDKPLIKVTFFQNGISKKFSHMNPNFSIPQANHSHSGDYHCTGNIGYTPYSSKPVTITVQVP
Experimental: as §1, §2

[9] = biological target: T9, human FcγRIIaH extracellular domain, C-terminal His-tag (human, UniProt P12318 34-217)
T9 construct: also called human FcγRIIa (type H); FcgRIIaH; not shown: His-tag added to C-terminus
T9 sequence: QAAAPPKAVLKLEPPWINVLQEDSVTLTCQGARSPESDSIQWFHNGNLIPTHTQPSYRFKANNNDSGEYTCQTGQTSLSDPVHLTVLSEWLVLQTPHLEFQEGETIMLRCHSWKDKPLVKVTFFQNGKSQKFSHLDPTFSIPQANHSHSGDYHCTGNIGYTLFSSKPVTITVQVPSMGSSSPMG
Experimental: as §1, §2

T6 sequence (P08637 17-208 F176V): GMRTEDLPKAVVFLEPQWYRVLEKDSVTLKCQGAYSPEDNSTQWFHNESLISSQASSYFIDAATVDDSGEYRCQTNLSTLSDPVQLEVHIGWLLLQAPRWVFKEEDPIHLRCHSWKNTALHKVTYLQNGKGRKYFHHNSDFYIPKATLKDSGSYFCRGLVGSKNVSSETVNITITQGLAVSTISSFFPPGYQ
T7 sequence (A3RFZ7 21-206): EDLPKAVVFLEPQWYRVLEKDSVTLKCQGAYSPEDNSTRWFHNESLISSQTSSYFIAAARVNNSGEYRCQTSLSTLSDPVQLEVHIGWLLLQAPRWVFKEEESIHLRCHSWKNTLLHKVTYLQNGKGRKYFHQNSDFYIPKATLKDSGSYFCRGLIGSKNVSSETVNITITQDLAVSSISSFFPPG

B1: M103205H795-MY325/M103202L889-SK1 (antibody, human IgG1, kappa)
heavy: QVTLKESGPVLVKPTETLTLTCTVSGIDLSHDDISWVRQAPGKGLEWVGIISYAGSTYYASWAKGRLTISKDTSKNQVVLTMTNMDPVDTATYYCARGVPAYSHGGDLWGQGTLVTVSSASTKGPSVFPLAPSSKSTSGGTAALGCLVKDYFPEPVTVSWNSGALTSGVHTFPAVLQSSGLYSLSSVVTVPSSSLGTQTYICNVNHKPSNTKVDKKVEPKSCDKTHTCPPCPAPELLDGPSVFLFPPKPKDTLMISRTPEVTCVVVDVSDEDPEVKFNWYVDGVEVHNAKTKPREEQYNSTYRVVSVLTVLHQDWLNGKEYKCKVSNKALPKPIEKTISKAKGQPREPQVYTLPPSREEMTKNQVSLTCLVKGFYPSDIAVEWESNGQPENNYKTTPPVLDSDGSFFLYSKLTVDKSRWQQGNVFSCSVMHEALHNHYTQKSLSLSP
light: DIVMTQSPATLSLSPGERATLSCTSSQSVYHANWLSWFQQKPGQPPKLLIYWASTLAYGVPSRFSGSGSGTDFTLTISSLQPEDAATYYCAGGYGGGRYAFGQGTKVEIKRTVAAPSVFIFPPSDEQLKSGTASVVCLLNNFYPREAKVQWKVDNALQSGNSQESVTEQDSKDSTYSLSSTLTLSKADYEKHKVYACEVTHQGLSSPVTKSFNRGEC
Kd [1]: 0.26 µM | Kd [2]: 4.4 µM | Kd [3]: 4 µM | Kd [4]: 0.3 µM | Kd [5]: 5.8 µM | Kd [6]: 8.1 µM | Kd [7]: 4 µM | Kd [8]: 0.95 µM | Kd [9]: 0.51 µM
